This note sets out measurements from patent US20240092920A1 (KEYMED BIOSCIENCES, published 2024).

Positions count from the first letter of the chain named.

The target in test [1] is T1, recombinant protein of human IL-4Rα extracellular region (human, UniProt P24394 26-232).
T1 construct: range 26-232; Made in HEK293-6E cells, purified on nickel chelate; Used biotin-labeled on SA probes in the Fortebio assays and unlabeled as ELISA coat; also called hIL-4Rα; IL-4Rα recombinant protein
T1 sequence: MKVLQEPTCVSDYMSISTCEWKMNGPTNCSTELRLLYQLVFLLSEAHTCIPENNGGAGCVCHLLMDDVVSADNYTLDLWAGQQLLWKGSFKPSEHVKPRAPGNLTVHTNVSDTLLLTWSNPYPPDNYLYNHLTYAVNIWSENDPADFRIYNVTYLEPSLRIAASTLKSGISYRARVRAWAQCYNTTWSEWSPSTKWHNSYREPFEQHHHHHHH
Nature of the test: ELISA on coated human hIL-4Rα (1 ug/ml), HRP-linked secondary antibody, OD450. On the procedure: (§1) 1 ug/ml human hIL-4Rα, 10 ug/ml cynomolgus cynoIL-4Rα, 1 ug/ml mouse mIL-4Rα (Sino Biological, Cat: 80198-R08H) and 1 ug/ml rat-derived ratIL-4Rα (Sino Biological, Cat: 51180-MO8H) are diluted in 0.05 M carbonate coating buffer (pH 9.5) at 4° C. overnight. The solution in the wells is discarded the next day and the wells are washed 3 times with PBS washing buffer. Then PBS solution containing 2% BSA is added for blocking for 2 hours. After washing 3 times with PBS washing buffer, 100 ul of humanized candidate antibodies at different diluted concentrations is added, incubated for 1 h at room temperature, and then washed 3 times with PBS washing buffer; the HRP cross-linked antibody (Jackson Immuno Research) is diluted at 1:10000 with PBS washing buffer and incubated for 1 hour at room temperature. After washing 3 times with PBS washing buffer, 100 ul of TMB substrate solution is added to develop color, and after reaction at room temperature for 10 minutes; the reaction is stopped by the addition of 50 ul of 0.5 M concentrated sulfuric acid solution and the absorbance at 450 nm is read.
(An ELISA detects its analyte on a solid surface through an enzyme-linked reagent.)

Test [2] addresses T2, hIL-4Rα, full length, on stably transfected HEK293 cells (human, UniProt P24394 26-825).
T2 construct: whole, on cells; also called HEK293-hIL-4Rα
T2 sequence (looked up): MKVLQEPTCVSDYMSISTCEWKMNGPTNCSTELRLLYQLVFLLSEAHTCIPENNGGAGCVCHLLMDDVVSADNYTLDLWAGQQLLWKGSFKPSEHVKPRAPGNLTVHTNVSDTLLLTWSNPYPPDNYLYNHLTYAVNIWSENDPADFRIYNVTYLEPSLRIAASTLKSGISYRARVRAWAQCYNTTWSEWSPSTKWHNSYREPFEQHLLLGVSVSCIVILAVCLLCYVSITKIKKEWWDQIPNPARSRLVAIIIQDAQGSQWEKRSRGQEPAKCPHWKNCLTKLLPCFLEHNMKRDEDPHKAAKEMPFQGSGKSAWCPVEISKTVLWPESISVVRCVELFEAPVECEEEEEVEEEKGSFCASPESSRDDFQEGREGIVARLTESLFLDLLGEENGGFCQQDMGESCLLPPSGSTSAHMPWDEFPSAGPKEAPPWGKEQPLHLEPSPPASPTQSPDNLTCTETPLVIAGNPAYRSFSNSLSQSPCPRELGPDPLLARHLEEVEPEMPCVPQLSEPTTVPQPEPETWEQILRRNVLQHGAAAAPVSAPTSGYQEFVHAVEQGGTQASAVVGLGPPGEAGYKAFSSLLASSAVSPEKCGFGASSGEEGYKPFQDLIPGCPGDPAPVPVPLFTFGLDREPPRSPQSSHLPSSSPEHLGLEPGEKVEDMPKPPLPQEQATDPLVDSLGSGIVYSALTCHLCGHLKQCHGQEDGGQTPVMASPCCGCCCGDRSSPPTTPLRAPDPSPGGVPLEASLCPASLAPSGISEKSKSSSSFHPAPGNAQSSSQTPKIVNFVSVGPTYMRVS
Nature of the test: flow cytometry on 293-hIL-4Rα stably transfected cells, anti-human IgG Fab'2-AF647. On the procedure: Every 1*10⁶ cells corresponds to 100 μl of 3% BSA/PBS solution, and the solution is blocked at 4° C. for 20 minutes. The prepared cells are added to a 96-well U-type plate at a volume of 100 μl/well, and centrifuged at 1100 rpm for 3 minutes, and the supernatant is discarded; and the primary antibody solution is added and incubated for 1 hour on ice. […] After incubation with the primary antibody solution, additional 0.5% BSA/PBS is added to a volume of […], centrifuged at 1100 rpm for 3 minutes, and the supernatant is discarded. 150 μl of 0.5% BSA/PBS is further added, centrifuged at 1100 rpm for 3 minutes, and the supernatant is discarded; before adding a secondary antibody anti-human IgG, Fab′2-AF647, same is diluted at 1:300 with 1% BSA/PBS. 40 μl of the secondary antibody solution is added to each well and incubated on ice for 45 minutes. After incubation with the secondary antibody solution, additional 0.5% BSA/PBS is added to a volume of 150 μl, centrifuged at 1100 rpm for 3 minutes, and the supernatant is discarded; 150 μl of 0.5% BSA/PBS is further added, centrifuged at 1100 rpm for 3 minutes, and the supernatant is discarded; 20-100 μl of PBS is added to resuspend the cells to 1*10⁶ cells per ml, and the obtained suspension is loaded onto a flow cytometer (I-Que screener). After opening the instrument and operating system according to the correct process, and setting the correct parameters, the cells are loaded to the test plate, and the fluorescent signal is detected, analysis is performed using Graph Pad Prism 5 software.
In general terms: A flow cytometer gives signals particle by particle.

Test [3] concerns the target T3, recombinant protein of cynomolgus IL-4Rα extracellular region (cynomolgus monkey).
T3 construct: also called cynoIL-4Rα; cynomolgus monkey IL-4Rα
T3 chain: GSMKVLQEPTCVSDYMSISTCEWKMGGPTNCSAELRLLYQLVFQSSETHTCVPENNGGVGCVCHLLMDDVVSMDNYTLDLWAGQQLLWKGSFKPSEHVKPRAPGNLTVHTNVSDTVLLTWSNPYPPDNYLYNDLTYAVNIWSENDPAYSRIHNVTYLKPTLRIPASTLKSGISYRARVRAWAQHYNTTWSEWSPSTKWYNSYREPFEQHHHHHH
Nature of the test: ELISA on coated cynomolgus cynoIL-4Rα (10 ug/ml), HRP-linked secondary antibody, OD450. On the procedure:
as §1

Test [4] deals with T2, hIL-4Rα, full length, on stably …. Nature of the test: flow cytometry blocking assay on 293-hIL-4Rα stably transfected cells; blocked ligand: biotin-labeled IL-4 at 0.15 ug/ml, SA-PE. The procedure: Every 1*10⁶ cells corresponds to 100 μl of 3% BSA/PBS solution, and the solution is blocked at 4° C. for 20 minutes. The prepared cells are added to a 96-well U-type plate at a volume of 100 μl/well, and centrifuged at 1100 rpm for 3 minutes, and the supernatant is discarded; and the primary antibody solution is added and incubated for 1 hour on ice. Purified candidate antibodies are made into 5 concentration series with a starting concentration of 100 nM, and diluted according to a series of 1:5. After incubation with the primary antibody solution, additional 0.5% BSA/PBS is added to a volume of 150 μl, centrifuged at 1100 rpm for 3 minutes, and the supernatant is discarded. 150 μl of 0.5% BSA/PBS is further added, centrifuged at 1100 rpm for 3 minutes, and the supernatant is discarded; biotin-labeled IL-4 at a final concentration of 0.15 ug/ml is added and incubated on ice for 45 minutes. The secondary antibody SA-PE is diluted at 1:300 with 1% BSA/PBS; 40 μl of the secondary antibody solution is added to each well and incubated on ice for 45 minutes. After incubation with the secondary antibody solution, additional 0.5% BSA/PBS is added to a volume of 150 μl, centrifuged at 1100 rpm for 3 minutes, and the supernatant is discarded; 150 μl of 0.5% BSA/PBS is further added, centrifuged at 1100 rpm for 3 minutes, and the supernatant is discarded. 20-100 μl of PBS is added to resuspend the cells to 1*10⁶ cells per ml, and the obtained suspension is loaded onto a flow cytometer (I-Que screener). After opening the instrument and operating system according to the correct process, and setting the correct parameters, the cells are loaded to the test plate, and the fluorescent signal is detected, analysis is performed using Graph Pad Prism 5 software.

B1: 1021/1013 (antibody, IgG1, V domains shown)
VH: EVQLVESGGGLVKPGGSLRLSCAASGFTFSRYAMSWVRQAPGKGLEWVSTISSGGSYTNYADSVKGRFTISRDNVKNTLYLQMNSLRAEDTAVYYCARATARATEFAYWGQGTLVTVSS
VL: DIQMTQSPSSLSASVGDRVTITCQASQDISNYLNWYQQKPGKAPKLLIYYTSRLHSGVPSRFSGSGSGTDYTLTISSLQPEDFATYFCQQGNTLPLTFGGGTKVEIK
notes: Humanized candidate antibody; also called 1021/1013-IgG; VH1021 with VL1013
By EC50 is commonly meant the concentration needed to bring the measured effect to its halfway point. In general, EC50 (read off the curve) refers to the concentration giving half of the maximal effect. Low values mean an effect from little substance, high ones a need for much substance. As to B1, the values for the EC50 in test [1] and in test [3] were 0.064 nM and 1.4 nM, respectively. Also, the “EC50 (read off the curve)” value in test [2] was approximately 0.03 nM.

B2: 1026/1011 (antibody, V domains shown)
VH: QVQLVQSGAEVKKPGASVKMSCKASVYTFTGYNMHWVRQAPGQGLEWIGGLHPGNGDTSYNQKFKDRATLTADRSSNTAYMELSSLRSEDTAVYYCALTTAGRAWFAYWGQGTLVTVSS
VL: B1 VL with L73F, F83I, L96W
notes: Humanized candidate antibody; same remark on Fab/IgG wording as for 1021/1013; also called 1026/1011-IgG; VH1026 with VL1011
For the molecule B2, the EC50 in test [1] was determined as 0.06 nM; in test [3] it was 89.2 nM. For the same molecule, in test [2], the “EC50 (read off the curve)” value was approximately 0.07 nM. Besides, in test [4], the “IC50 (read off the curve)” value was approximately 0.2 nM.

B3: 1026/1012 (antibody, V domains shown)
VH: B2 VH
VL: B1 VL with Q24R, L96W
notes: Humanized candidate antibody; same remark on Fab/IgG wording as for 1021/1013; also called 1026/1012-IgG; VH1026 with VL1012
Turning to B3, the EC50 in test [1] was found to be 0.017 nM; in test [3], 13.2 nM. Further, the 50% effective concentration (EC50 (read off the curve)) in test [2] was approximately 0.06 nM. In test [4], the “IC50 (read off the curve)” value was approximately 0.2 nM.

B4: 1022/1013 (antibody, V domains shown)
VH: B1 VH with V5L, K13Q
VL: B1 VL
notes: Humanized candidate antibody; same remark on Fab/IgG wording as for 1021/1013; also called 1022/1013-IgG; VH1022 with VL1013
As to B4, the EC50 was found to be 0.067 nM in test [1] and 1.16 nM in test [3]. Further, the “IC50 (read off the curve)” value in test [4] is approximately 0.09 nM.
